T1: Abp1, P15891
T1 sequence (P15891 535-592, looked up): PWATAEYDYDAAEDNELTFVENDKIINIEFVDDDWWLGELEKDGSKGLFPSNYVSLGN

T2: Bbc1, P47068
T2 sequence (P47068 1-78, looked up): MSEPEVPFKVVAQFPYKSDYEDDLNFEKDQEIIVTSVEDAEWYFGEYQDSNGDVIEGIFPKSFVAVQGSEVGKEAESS

T3: Boi1, P38041
T3 sequence (P38041 1-86, looked up): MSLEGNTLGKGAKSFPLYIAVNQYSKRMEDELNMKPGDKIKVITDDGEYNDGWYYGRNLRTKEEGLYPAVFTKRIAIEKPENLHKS

T4: Boi2, P39969
T4 sequence (P39969 32-116, looked up): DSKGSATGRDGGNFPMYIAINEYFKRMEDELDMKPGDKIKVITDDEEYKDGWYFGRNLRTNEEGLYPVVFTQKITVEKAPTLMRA

T5: Bud14, P27637
T5 sequence (P27637 247-328, looked up): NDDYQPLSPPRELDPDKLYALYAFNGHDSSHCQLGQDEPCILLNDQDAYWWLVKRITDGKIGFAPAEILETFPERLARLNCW

T6: Bzz1-1, P38822
T6 sequence (P38822 478-572, looked up): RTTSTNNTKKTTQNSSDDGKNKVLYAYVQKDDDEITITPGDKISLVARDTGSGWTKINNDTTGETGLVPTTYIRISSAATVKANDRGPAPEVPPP

T7: Bzz1-2, P38822
T7 sequence (P38822 568-633, looked up): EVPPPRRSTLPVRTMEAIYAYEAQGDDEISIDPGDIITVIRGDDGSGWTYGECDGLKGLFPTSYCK

T8: Cdc25, P04821
T8 sequence (P04821 50-136, looked up): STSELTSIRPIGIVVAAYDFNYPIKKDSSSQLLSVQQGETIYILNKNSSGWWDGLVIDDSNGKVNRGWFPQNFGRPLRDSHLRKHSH

T9: Cyk3, Q07533
T9 sequence (Q07533 1-83, looked up): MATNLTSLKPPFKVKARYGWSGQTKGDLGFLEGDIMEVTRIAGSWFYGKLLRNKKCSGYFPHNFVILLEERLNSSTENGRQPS

T10: Fus1, P11710
T10 sequence (P11710 432-512, looked up): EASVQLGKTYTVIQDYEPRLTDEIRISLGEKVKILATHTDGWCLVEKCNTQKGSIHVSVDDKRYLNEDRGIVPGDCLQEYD

T11: Hof1, Q05080
T11 sequence (Q05080 590-669, looked up): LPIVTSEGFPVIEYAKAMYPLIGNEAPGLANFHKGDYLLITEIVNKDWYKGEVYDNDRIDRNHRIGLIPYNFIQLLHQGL

T12: Hse1, P38753
T12 sequence (P38753 208-285, looked up): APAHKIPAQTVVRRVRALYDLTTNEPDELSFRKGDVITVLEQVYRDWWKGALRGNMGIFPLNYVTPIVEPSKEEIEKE

T13: Lsb1, P53281
T13 sequence (P53281 45-122, looked up): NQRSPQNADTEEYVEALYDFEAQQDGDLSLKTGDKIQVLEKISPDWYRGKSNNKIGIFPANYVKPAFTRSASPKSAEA

T14: Lsb3, P43603
T14 sequence (P43603 385-451, looked up): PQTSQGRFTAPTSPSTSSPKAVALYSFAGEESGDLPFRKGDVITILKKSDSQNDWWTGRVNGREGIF

T15: Lsb4, P32793
T15 sequence (P32793 402-468, looked up): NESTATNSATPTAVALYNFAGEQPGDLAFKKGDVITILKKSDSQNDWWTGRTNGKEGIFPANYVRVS

T16: Myo5, Q04439
T16 sequence (Q04439 1072-1160, looked up): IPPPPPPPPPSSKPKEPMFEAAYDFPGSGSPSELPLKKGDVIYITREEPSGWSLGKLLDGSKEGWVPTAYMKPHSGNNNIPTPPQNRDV

T17: Nbp2, Q12163
T17 sequence (Q12163 103-180, looked up): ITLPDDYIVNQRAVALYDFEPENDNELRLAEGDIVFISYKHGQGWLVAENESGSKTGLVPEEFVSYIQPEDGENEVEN

T18: Pex13, P80667
T18 sequence (P80667 295-386, looked up): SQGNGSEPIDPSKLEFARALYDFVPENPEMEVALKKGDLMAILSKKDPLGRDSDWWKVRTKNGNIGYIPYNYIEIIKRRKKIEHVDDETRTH

T19: Pin3, Q06449
T19 sequence (Q06449 53-122, looked up): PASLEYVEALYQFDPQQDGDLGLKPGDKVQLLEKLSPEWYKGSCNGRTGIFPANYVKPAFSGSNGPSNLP

T20: Sla1-2, P32790
T20 sequence (P32790 60-140, looked up): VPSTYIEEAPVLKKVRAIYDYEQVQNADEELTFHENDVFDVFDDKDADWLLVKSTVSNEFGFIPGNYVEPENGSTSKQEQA

T21: Sla1-3, P32790
T21 sequence (P32790 344-424, looked up): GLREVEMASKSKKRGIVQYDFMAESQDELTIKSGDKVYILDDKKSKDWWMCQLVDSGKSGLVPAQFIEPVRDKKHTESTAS

B1: unnamed (peptide)
chain: RTIRKLPLMSLSEYF
B2: unnamed (peptide)
chain: HVRRSILALPLGVLL
B3: unnamed (peptide)
chain: IKTRSVPKIPSIESV
B4: unnamed (peptide)
chain: NRARYLPQNPDIIAG

Key:
Experiment in all cases: SPOT array
Abp1, P15891 = molecular target: T1, Abp1, P15891; conditions: median of control spots 935
Bbc1, P47068 = molecular target: T2, Bbc1, P47068; conditions: median of control spots 796
Bem1-1, P29366 = conditions: median of control spots 4282
Sequence of Bem1-1, P29366 (P29366 55-141): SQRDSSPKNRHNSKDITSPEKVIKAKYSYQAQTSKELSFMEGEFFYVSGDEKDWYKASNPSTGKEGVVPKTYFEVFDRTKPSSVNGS

Bem1-2, P29366 = conditions: median of control spots 4347
Sequence of Bem1-2, P29366 (P29366 139-227): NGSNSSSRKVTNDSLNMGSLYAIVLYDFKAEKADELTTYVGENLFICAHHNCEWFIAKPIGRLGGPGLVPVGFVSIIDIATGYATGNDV

Boi1, P38041 = molecular target: T3, Boi1, P38041; conditions: median of control spots 1162
Boi2, P39969 = molecular target: T4, Boi2, P39969; conditions: median of control spots 1161
Bud14, P27637 = molecular target: T5, Bud14, P27637; conditions: median of control spots 956
Bzz1-1, P38822 = molecular target: T6, Bzz1-1, P38822; conditions: median of control spots 4446
Bzz1-2, P38822 = molecular target: T7, Bzz1-2, P38822; conditions: median of control spots 4538
Cdc25, P04821 = molecular target: T8, Cdc25, P04821; conditions: median of control spots 969
Cyk3, Q07533 = molecular target: T9, Cyk3, Q07533; conditions: median of control spots 1451
Fus1, P11710 = molecular target: T10, Fus1, P11710; conditions: median of control spots 1200
GST = conditions: median of control spots 978
Hof1, Q05080 = molecular target: T11, Hof1, Q05080; conditions: median of control spots 4086
Hse1, P38753 = molecular target: T12, Hse1, P38753; conditions: median of control spots 1727
Lsb1, P53281 = molecular target: T13, Lsb1, P53281; conditions: median of control spots 388
Lsb3, P43603 = molecular target: T14, Lsb3, P43603; conditions: median of control spots 406
Lsb4, P32793 = molecular target: T15, Lsb4, P32793; conditions: median of control spots 397
Myo3, P36006 = conditions: median of control spots 468
Myo5, Q04439 = molecular target: T16, Myo5, Q04439; conditions: median of control spots 471
Nbp2, Q12163 = molecular target: T17, Nbp2, Q12163; conditions: median of control spots 357
Pex13, P80667 = molecular target: T18, Pex13, P80667; conditions: median of control spots 1341
Pin3, Q06449 = molecular target: T19, Pin3, Q06449; conditions: median of control spots 2171
Rvs167, P39743 = conditions: median of control spots 2707
Sequence of Rvs167, P39743 (P39743 419-482): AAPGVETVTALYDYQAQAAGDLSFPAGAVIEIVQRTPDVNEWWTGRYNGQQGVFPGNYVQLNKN

Sho1, P40073 = conditions: median of control spots 1148
Sequence of Sho1, P40073 (P40073 287-367): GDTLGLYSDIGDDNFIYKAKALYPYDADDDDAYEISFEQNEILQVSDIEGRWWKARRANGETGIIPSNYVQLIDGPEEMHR

Sla1-2, P32790 = molecular target: T20, Sla1-2, P32790; conditions: median of control spots 712
Sla1-3, P32790 = molecular target: T21, Sla1-3, P32790; conditions: median of control spots 5475

| Binder | SPOT intensity (Abp1, P15891) | SPOT intensity (Bbc1, P47068) | SPOT intensity (Bem1-1, P29366) | SPOT intensity (Bem1-2, P29366) | SPOT intensity (Boi1, P38041) | SPOT intensity (Boi2, P39969) | SPOT intensity (Bud14, P27637) | SPOT intensity (Bzz1-1, P38822) | SPOT intensity (Bzz1-2, P38822) | SPOT intensity (Cdc25, P04821) | SPOT intensity (Cyk3, Q07533) | SPOT intensity (Fus1, P11710) | SPOT intensity (GST) | SPOT intensity (Hof1, Q05080) | SPOT intensity (Hse1, P38753) | SPOT intensity (Lsb1, P53281) | SPOT intensity (Lsb3, P43603) | SPOT intensity (Lsb4, P32793) | SPOT intensity (Myo3, P36006) | SPOT intensity (Myo5, Q04439) | also measured |
| --- | --- | --- | --- | --- | --- | --- | --- | --- | --- | --- | --- | --- | --- | --- | --- | --- | --- | --- | --- | --- | --- |
| B1 | 13 | 3 | 0 | 0 | 1 | 0 | 6 | 2 | 0 | 6 | 1 | 24 | 0 | 20 | 2 | 15 | 3 | 2 | 3 | 1 | SPOT intensity (Nbp2, Q12163): 1; SPOT intensity (Pex13, P80667): 12; SPOT intensity (Pin3, Q06449): 27; SPOT intensity (Rvs167, P39743): 0; SPOT intensity (Sho1, P40073): 6; SPOT intensity (Sla1-2, P32790): 1; SPOT intensity (Sla1-3, P32790): 19 |
| B2 | 23 | 1 | 0 | 0 | 3 | 1 | 14 | 0 | 0 | 20 | 2 | 16 | 0 | 0 | 0 | 47 | 0 | 4 | 3 | 1 | SPOT intensity (Nbp2, Q12163): 0; SPOT intensity (Pex13, P80667): 3; SPOT intensity (Pin3, Q06449): 2; SPOT intensity (Rvs167, P39743): 2; SPOT intensity (Sho1, P40073): 35; SPOT intensity (Sla1-2, P32790): 0; SPOT intensity (Sla1-3, P32790): 0 |
| B3 | 9 | 10 | 3 | 0 | 1 | 1 | 2 | 2 | 2 | 2 | 0 | 0 | 0 | 38 | 0 | 266 | 257 | 166 | 5 | 0 | SPOT intensity (Nbp2, Q12163): 12; SPOT intensity (Pex13, P80667): 32; SPOT intensity (Pin3, Q06449): 15; SPOT intensity (Rvs167, P39743): 1340; SPOT intensity (Sho1, P40073): 4; SPOT intensity (Sla1-2, P32790): 1; SPOT intensity (Sla1-3, P32790): 6 |
| B4 | 5 | 2 | 0 | 0 | 3 | 0 | 11 | 0 | 0 | 9 | 0 | 0 | 0 | 4 | 3 | 1 | 1 | 0 | 0 | 0 | SPOT intensity (Nbp2, Q12163): 1; SPOT intensity (Pex13, P80667): 0; SPOT intensity (Pin3, Q06449): 2; SPOT intensity (Rvs167, P39743): 0; SPOT intensity (Sho1, P40073): 10; SPOT intensity (Sla1-2, P32790): 0; SPOT intensity (Sla1-3, P32790): 11 |
